This test addresses T1, Human NUB1L (amino acids 2-615) (human, UniProt Q9Y5A7-1 2-615).
T1 construct: NUB1L, the long isoform of NEDD8-ultimate buster 1, human, amino acids 2-615 (615 residues in the long isoform); Details are in the Supporting Information; also called NEDD8-ultimate buster 1 long isoform; natural abundance NUB1L; source: E. coli BL21-CodonPlus(DE3)-RIPL, LB medium, purified (same steps as for N-FAT10-C0)
T1 sequence (looked up): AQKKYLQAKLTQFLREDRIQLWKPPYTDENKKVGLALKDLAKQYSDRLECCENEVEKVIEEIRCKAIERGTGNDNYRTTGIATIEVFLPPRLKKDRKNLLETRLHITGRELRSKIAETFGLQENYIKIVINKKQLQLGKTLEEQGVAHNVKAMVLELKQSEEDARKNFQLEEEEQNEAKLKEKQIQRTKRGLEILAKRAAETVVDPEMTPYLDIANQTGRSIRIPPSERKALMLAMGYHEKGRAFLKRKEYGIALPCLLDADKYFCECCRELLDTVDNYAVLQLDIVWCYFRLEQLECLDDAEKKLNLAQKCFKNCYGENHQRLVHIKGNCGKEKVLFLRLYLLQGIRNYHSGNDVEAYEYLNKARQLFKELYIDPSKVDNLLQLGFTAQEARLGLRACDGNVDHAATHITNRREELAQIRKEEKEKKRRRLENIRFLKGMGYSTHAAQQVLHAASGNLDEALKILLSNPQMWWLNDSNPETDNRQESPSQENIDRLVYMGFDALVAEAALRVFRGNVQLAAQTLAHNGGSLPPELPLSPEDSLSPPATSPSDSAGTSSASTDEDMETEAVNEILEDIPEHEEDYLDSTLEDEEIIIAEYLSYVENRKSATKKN
In words: SEC; size-exclusion chromatography (with SDS-PAGE) of N-FAT10-C0 with NUB1L, Figure S1; conditions are in the Supporting Information. Particulars: both partners purified. Background: Size exclusion chromatography separates by hydrodynamic size, large species first.

B1: Cys-free N-domain of human FAT10 (amino acids 5-86; C7T, C9T) (domain or fragment)
chain: GASTLTVHVRSEEWDLMTFDANPYDSVKKIKEHVRSKTKVPVQDQVLLLGSKILKPRRSLSSYGIDKEKTIHLTLKVVKPSDE
notes: additional glycine residue at the N-terminus that remains from the TEV protease cleavage site; FAT10 (human leukocyte antigen F adjacent transcript 10), human, N-domain, amino acids 5-86, with C7T and C9T; 83 residues together with the extra glycine; Uniformly 13C,15N labelled (M9 medium with U-13C6-D-glucose and 15N-ammonium chloride) for MAS NMR; Detailed protocols are in the Supporting …
For the molecule B1, the binding result is reported as “binds”.

(Values after publication PMC13244463, “Intermolecular β‑sheet Formation Guides the Interaction between Ubiquitin-like Modifier FAT10 and Adapter Protein NUB1L” (Journal of the American Chemical Society, 2026).)
